# Measurements: the supplement of paper PMC9170038
# Test system: MS2 coat protein
# Assay: apparent KD of MS2 coat protein; higher = weaker reporter binding
# Settings: Eterna round: R107
# Procedure: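 RNA-MaP round R107: designed RNA switches with theophylline, tryptophan, arginine or FMN aptamers are transcribed on-chip within common flanks. They are titrated with SNAP-549-labelled MS2 coat protein in RNA-MaP buffer (100 mM Tris pH 7.5, 80 mM KCl, 4 mM MgCl2), without ligand or with the indicated ligand. Median apparent KD per design.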
# [1] = input ligand: theophylline 20 uM
# [2] = input ligand: theophylline 2 mM
# [3] = input ligand: tryptophan 2.4 mM
Sequence,apparent KD of MS2 coat protein (input ligand: arginine 13.2 mM),apparent KD of MS2 coat protein (input ligand: none),apparent KD of MS2 coat protein [1],apparent KD of MS2 coat protein [2],apparent KD of MS2 coat protein [3]
GCUAGUGGCAGAAGGAGCGACAUUUAUAGUGGUCGAUACAUGAGGAUCACCCAUGUACUAUGUCAGGUAGGUCGCUGCCACUAGC [EAB NP+V+V2 #5],31.6 nM,35.1 nM,44.8 nM,34 nM,32.5 nM
GUAGCGACGACGGCCGCCACUCACAGGUGAGGGUAGACCAACCUUCACAUGAGGAUCACCCAUGUGAGGACCGGGUUGUCGCUAC [#12 Exclusion Tryptophan B],57.5 nM,79 nM,109 nM,81.4 nM,168 nM
GUAUAAAGAAAACUUUAUACAGUGGGUGAACGAGGACCGGUACGGCCGCCACUCGGACAUGAGGAUCACCCAUGUCCAUGUGAAA [AstrosExyTryA#9],14.4 nM,14.3 nM,13.9 nM,17 nM,37.2 nM
GUGGAGACAUGAGAUACCAGUCUCUUUAACAUGAGGAUCACCCAUGUAAUGCUCCUCGGAGACCCUUGGCAGCUCAGUAUGAUGA [#09 Exclusion-TheophyllineB],32.2 nM,,71.7 nM,,34.4 nM
GUUUAGAGCUCGGCCGCCACUCAAACAUGAGGAUCACCCAUGUAAAACAUGAGGAUCACCCAUGUGAGGACCGGGAGAAAUAAGA [Exclusion Tryptophan B GF7],242 nM,337 nM,370 nM,435 nM,420 nM
AGUCUUAAUGGAAGGAGCGCAGUCAUAACAUGAGGAUCACCCAUGUCGAUGUGAGGGUCAUUGCAGGUAGGUCGCCAUACUAAGA [Same State - Arginine B (Freestyle 4)],24.7 nM,31 nM,25 nM,25.3 nM,32.6 nM
CACGGAUGAGUGGAUCACCCUCAUAAUAACCGAGGACCGGUACGGCCGCCACUCGAAAACCGUGACCUGUACGAAAAGUGCAGGA,28 nM,33.5 nM,486 nM,782 nM,708 nM
AAGGUGAUCCUCGAUACCAGCUCAACAUGAGGAUCACCCAUGUAAGCCUGGAAACAGGCGAGCCCUUGGCAGCGAGUUACAUCAA [(M)'-(Theo1)-(Ms2)-(Theo2)-(M'')],32.9 nM,,78.2 nM,,18.6 nM
ACGUAAUGCGGAAGGAGCGUCAUUUUAAAACAUGAGGAUCACCCAUGUAAUAUUUUUGUGUGACAGGUAGGUCGCCGAAGUACGA [#07 Same State - Arginine B],14.4 nM,12.9 nM,19.3 nM,14.4 nM,13.6 nM
UCUUUCUUUGUAGAUACCAGCGUGUUAUCUUUCUUUUGACAUGAGGAUCACCCAUGUAUAUGCCCUUGGCAGCUACAUAUUCUUU [#01 Same State - Theophylline B],18.1 nM,,23.6 nM,,18.2 nM
GGCGCGAGCCAACAUGAGGAUCACCCAUGUCGAGGACCGGUACGGCCGCCACUCGAACGAGUGGCGCGCGCGCGCGCGCGCGCGC [Vaa],12.2 nM,15.9 nM,17.9 nM,19 nM,28.6 nM
UUCGUUUGCGGAAGGAGCGACGGACAUCGGUGAACAACGCACAUGAGGAUCACCCAUGUACGUCAGGUAGGUCGCCGCUAAGAGU [XArg-B3],29.3 nM,105 nM,134 nM,375 nM,73.6 nM
AUCGUACCUAAUGAUACCAGCAAGUGAUCAUAACAUGAGGAUCACCCAUGUAAUCAGUGAUGCCCUUGGCAGCAUAAUCGUUACA [Same State - Theophylline B (Freestyle 2)],94.7 nM,,218 nM,,169 nM
ACAUGAGGAUCACCCAUGUGAGAUAGGGAAGGAGCGCAGGAGGAUGCAGGUAGGUCGCCCACAUGAGGAUCACCCGUGUCUGGAG [#11 Exclusion - Arginine A],33.2 nM,43.4 nM,33 nM,62.4 nM,33.1 nM
UGUAUGUGAUUUGAUACCAGACCAACUGGUAAUACAUGAGGAUCACCCAUGUAGAUUUGGGUCCCUUGGCAGCAAAUCGCAUACU [SSTheo B #23],45.6 nM,,34.1 nM,,46.1 nM
AACCGAGGCUAUCCUCUAAGAAUAUGUGAUACCAGAAUAAUUUUAUUCCCUUGGCAGCAUGACAUGAGGAUCACCCAUGUGUCUU [SSTheo A #7],70 nM,,136 nM,,136 nM
